Experimental findings from paper PMC10579538 (The Journal of Biological Chemistry, 2023) are described below.

The target of assay [1] is myosin-7a subfragment-1 (motor domain and the first IQ motif) (human). The experiment in a line: mass photometry.
In a further assay the target is actin (UniProt P68135).
For assay [2], the target named is full-length human myosin-7a heavy chain (isoform 1, long N-terminal isoform) (human, UniProt Q13402-1 1-2215). The experiment in a line: single-molecule two-color TIRF co-migration on actin.
Sequence of full-length human myosin-7a heavy chain (isoform 1, long N-terminal isoform) (Q13402 whole entry, canonical isoform): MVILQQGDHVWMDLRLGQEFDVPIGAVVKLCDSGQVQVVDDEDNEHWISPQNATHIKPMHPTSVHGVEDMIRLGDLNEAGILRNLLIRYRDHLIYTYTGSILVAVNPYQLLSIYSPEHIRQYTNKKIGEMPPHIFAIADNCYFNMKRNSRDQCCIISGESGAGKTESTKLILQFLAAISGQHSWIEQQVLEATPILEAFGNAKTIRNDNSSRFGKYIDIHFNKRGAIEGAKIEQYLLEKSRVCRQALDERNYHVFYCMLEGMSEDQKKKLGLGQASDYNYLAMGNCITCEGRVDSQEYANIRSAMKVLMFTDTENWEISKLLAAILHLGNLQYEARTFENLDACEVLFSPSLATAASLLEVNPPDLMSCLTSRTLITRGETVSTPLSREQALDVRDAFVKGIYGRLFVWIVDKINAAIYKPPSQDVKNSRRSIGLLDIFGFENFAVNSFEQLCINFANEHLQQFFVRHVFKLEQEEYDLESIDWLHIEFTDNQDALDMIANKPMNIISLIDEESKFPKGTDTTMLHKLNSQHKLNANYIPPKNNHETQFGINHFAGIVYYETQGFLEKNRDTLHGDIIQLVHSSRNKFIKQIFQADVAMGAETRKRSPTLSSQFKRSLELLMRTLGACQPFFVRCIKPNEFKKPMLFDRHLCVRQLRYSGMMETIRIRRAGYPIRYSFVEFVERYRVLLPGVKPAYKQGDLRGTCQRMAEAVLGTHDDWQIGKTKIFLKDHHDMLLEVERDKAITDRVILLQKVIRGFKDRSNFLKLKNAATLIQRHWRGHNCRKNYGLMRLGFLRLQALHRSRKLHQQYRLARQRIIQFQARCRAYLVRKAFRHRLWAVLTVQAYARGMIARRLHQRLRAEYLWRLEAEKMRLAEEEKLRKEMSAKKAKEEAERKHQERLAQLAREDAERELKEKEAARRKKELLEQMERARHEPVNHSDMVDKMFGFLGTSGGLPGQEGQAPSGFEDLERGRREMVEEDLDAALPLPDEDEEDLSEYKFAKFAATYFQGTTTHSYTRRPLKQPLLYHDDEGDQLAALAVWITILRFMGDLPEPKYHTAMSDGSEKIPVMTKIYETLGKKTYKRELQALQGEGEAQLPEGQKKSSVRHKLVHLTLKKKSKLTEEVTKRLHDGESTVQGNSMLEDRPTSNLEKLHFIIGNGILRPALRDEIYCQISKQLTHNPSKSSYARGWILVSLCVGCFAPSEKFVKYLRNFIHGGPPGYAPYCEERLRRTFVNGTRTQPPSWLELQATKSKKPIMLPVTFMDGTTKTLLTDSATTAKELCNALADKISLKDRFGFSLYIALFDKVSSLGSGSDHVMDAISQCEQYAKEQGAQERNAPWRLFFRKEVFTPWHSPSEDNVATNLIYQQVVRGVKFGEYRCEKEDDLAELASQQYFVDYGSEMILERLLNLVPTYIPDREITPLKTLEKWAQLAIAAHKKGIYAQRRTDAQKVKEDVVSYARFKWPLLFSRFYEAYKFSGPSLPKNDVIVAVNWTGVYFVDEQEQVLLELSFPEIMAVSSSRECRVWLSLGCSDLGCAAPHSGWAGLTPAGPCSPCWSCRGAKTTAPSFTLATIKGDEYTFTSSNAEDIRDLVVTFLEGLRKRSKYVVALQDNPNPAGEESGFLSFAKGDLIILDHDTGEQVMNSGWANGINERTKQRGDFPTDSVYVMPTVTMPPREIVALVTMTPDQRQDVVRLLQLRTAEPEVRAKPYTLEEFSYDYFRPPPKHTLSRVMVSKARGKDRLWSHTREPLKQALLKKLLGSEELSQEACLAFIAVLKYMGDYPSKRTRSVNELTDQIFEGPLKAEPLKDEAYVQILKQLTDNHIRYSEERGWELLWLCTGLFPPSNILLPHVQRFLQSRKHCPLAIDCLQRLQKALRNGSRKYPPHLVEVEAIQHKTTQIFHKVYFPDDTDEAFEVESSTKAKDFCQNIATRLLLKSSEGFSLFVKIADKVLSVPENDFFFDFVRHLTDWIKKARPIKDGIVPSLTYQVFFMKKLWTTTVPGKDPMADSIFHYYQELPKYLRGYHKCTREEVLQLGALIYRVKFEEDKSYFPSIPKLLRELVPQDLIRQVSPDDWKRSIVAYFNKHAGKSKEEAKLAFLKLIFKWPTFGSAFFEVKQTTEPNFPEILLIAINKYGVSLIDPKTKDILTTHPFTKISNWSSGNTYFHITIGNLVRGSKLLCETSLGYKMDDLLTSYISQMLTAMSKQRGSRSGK

Broadly, the stoichiometry N is a count of units in the complex or per binding partner. Take “regulatory light chain (from UniProt O14950 1-172) (natural protein)”: in assay [1], the stoichiometry N is 1.

“myosin-7a subfragment-1 (motor domain and the first IQ motif) (domain or fragment)” returned a K ATPase of the actin-activated steady-state ATPase (NADH-coupled assay) with actin of 11 µM.

B1: mCherry-tagged MyRIP (myosin and Rab interacting protein) (natural protein, UniProt Q8NFW9-1 1-859, looked up)
chain: MGRKLDLSGLTDDETEHVLQVVQRDFNLRKKEEERLSELKQKLDEEGSKCSILSKHQQFVEHCCMRCCSPFTFLVNTKRQCGDCKFNVCKSCCSYQKHEKAWVCCVCQQARLLRAQSLEWFYNNVKSRFKRFGSAKVLKNLYRKHRLESGACFDILGGSLFESNLENEGSISGSDSTFYRQSEGHSVMDTLAVALRVAEEAIEEAISKAEAYGDSLDKQNEASYLRDHKEELTEELATTILQKIIRKQKSKSEQQVEEEPGWPHPQSCSTKVADEGTSASPGGYRAPAALWRSQSAFSITGEEALKTPPVEAPSRQPRDQGQHPRAESALPSWKSVDRLDETNLAPVLQSPDGNWVALKDGAPPPTRLLAKPKSGTFQALEVASSVASAYDEMGSDSEEDFDWSEALSKLCPRSRALPRNPQPQPTQAQSSDQGPIAASPSSALSPNPEAMCSDSETSSAGSSREVGHQARLSWLQRKAPRNPAAEKMRLHGELDVNFNPQLASRETSDSSEPEEAPHTTDRRARRWRRARLGSEEPSKEPSSPSAQLRDLDTHQVSDDLSETDISNEARDPQTLTDTTEEKRRNRLYELAMKMSEKETSSGEDQESEPKTESENQKESLSSEDNSQSVQEELKKKFSAVSLCNISTEVLKVINATEELIAGSTGPWESPQVPPDRQKGMFPRGTDQVRLDEQLTSLEENVYLAAGTVYGLETQLTELEDAARCIHSGTDETHLADLEDQVATAAAQVHHAELQISDIESRISALTIAGLNIAPCVRFTRRRDQKQRTQVQTIDTSRQQRRKLPAPPVKAEKIETSSVTTIKTFNHNFILQGSSTNRTKERKGTTKDLMEPALESAVMY
Consider B1, for which, in assay [2], the binding result was “binds”.
